Laboratory results published in patent US20160024193A1 (AC IMMUNE S A, published 2016).
No end group written: not given here. *: point of attachment. Biotin = O=C1N[C@H]2[C@H](CS[C@H]2CCCCC(=O)*)N1; linker = not defined here

How the values were obtained:
[1] = target: PKA-phosphorylated full-length Tau (Homo sapiens) (UniProt P10636); experiment: SPR Biacore 2000, bivalent IgG1 analyte, ~153 RU PKA-phospho Tau, ligand density 1
[2] = target: PKA-phosphorylated full-length Tau (Homo sapiens) (UniProt P10636); experiment: SPR Biacore 2000, bivalent IgG1 analyte, ~824 RU PKA-phospho Tau, ligand density 2
[3] = target: T1, Non-phospho. (not fully specified; printed as Biotin - linker - GDTSPRHLSNVSSTGSID; reading uncertain); experiment: ELISA: plate coated with 5 µg/ml IgG, 10 nM biotinylated peptide in solution, streptavidin-peroxidase/TMB, absorbance 450 nm
T1 construct: also called non-phosphorylated biotinylated Tau 401-418 peptide
T1 peptide: {Biotin-linker}-GDTSPRHLSNVSSTGSID
Experimental: FIG. 3. Binding of immobilized IgG antibodies to Tau-derived biotinylated peptides containing pS404 and/or pS409 as measured by ELISA. […] 10 nM of the biotinylated peptides shown in FIG. 3, and 5 μg/ml IgG, were used.
Specificity of the top five clones for phosphoserine 404 and phosphoserine 409 was also assessed by ELISA. In one experiment (FIG. 3), Nunc maxisorp microplates were coated with 5 μg/ml IgG in coating buffer (sodium carbonate pH9.6) for 70 minutes at ambient temperature. Non-specific binding sites were blocked with BBT for a minimum of 2 hours then the plates washed and 10 nM biotinylated peptide in BBT added. After 1.5 hours bound peptide was detected by a 65 minute incubation with peroxidase-conjugated Streptavidin and detection with TMB as described above. […] The peptides synthesized and used in this experiment (which correspond to amino acids 401-418 of full-length Tau) have the following amino acid sequences (Table B): […]

[4] = target: PKA-phosphorylated full-length Tau (Homo sapiens) (UniProt P10636); experiment: ELISA: plate coated with 1 µg/ml PKA-phosphorylated full-length Tau, IgG titrated 0.06 pM to 1 nM, anti-human Fc-peroxidase/TMB, absorbance 450 nm [panel A]
[5] = target: PKA-phosphorylated full-length Tau (Homo sapiens) (UniProt P10636); experiment: ELISA: plate coated with 0.1 µg/ml PKA-phosphorylated full-length Tau, IgG titrated 0.06 pM to 1 nM, anti-human Fc-peroxidase/TMB, absorbance 450 nm [panel B]

Chain of PKA-phosphorylated full-length Tau (Homo sapiens) (P10636 other isoform, or with tags, fused parts or gaps limits assumed): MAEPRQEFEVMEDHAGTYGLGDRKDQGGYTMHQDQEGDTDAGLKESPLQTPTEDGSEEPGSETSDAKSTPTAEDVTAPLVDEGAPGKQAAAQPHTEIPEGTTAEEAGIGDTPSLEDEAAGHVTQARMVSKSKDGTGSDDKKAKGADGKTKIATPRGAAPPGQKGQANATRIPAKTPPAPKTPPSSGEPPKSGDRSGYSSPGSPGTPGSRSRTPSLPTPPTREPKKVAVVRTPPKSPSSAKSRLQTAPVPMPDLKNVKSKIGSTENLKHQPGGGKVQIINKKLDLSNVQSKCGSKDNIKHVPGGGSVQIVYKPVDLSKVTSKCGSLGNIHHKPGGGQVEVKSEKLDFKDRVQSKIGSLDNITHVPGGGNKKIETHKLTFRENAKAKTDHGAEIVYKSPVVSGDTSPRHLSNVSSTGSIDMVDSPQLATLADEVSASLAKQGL

B1: TAM20 IgG1 (antibody, V domains shown)
VH: EVQLVQSGAEVKKPGSSVKVSCKASGYTFTDYYMNWVRQAPGQGLEWIGDINPNRGGTTYNQKFKGRVTITVDKSTSTAYMELSSLRSEDTAVYYCASYYAVGYWGQGTTVTVSS
VL: DIVMTQTPLSLPVTPGEPASISCRSSQSLVHSHGRTYLHWYLQKPGQSPQLLIYKVSNRFFGVPDRFSGSGSGTDFTLKISRVEAEDVGVYFCSQTRHFPYTFGGGTKVEIKR
Kd [1]: 0.8 nM | koff [1]: 0.0012 s⁻¹ | kon [1]: 1.6e+06 M⁻¹ s⁻¹ | Kd [2]: 0.2 nM | koff [2]: 0.0003 s⁻¹ | kon [2]: 1.6e+06 M⁻¹ s⁻¹ | binding result [3]: no binding (tested: 10 nM) | EC50 (read off the curve) [4]: 0.006 nM | EC50 (read off the curve) [5]: 0.02 nM
